Among the data in the RNAGym collection of RNA variant scans (doi:10.7554/elife.80360) are self-cleavage values, retold here.

To fix the notation:
B1: Hairpin Ribozyme (parent)
chain: GUCCUCUUUCACGUGCGCGUGAAAGAGAGAAGUGAACCAGAGAAACACACGUUGUGGUAUAUUACCUGGUA

This data set covers variants of B1. The experiment in a line: self-cleavage, relative activity (ratio to wild type); higher = more cleavage; co-transcriptional.
Consider GUCGUCUUUCACGUGCGCGUGACAGAGAGAAGUGAACCAGAGAAACACACGUUGUGGUAUAUUACCUGGUA [C4G A23C], for which the self-cleavage is 0.233.

GUCGUCUUUCACGUGCGCGUGAGAGAGAGAAGUGAACCAGAGAAACACACGUUGUGGUAUAUUACCUGGUA [C4G A23G]: the self-cleavage is 0.25.

For the variant GUCGUCUUCCACGUGCGCGUGAAAGAGAGAAGUGAACCAGAGAAACACACGUUGUGGUAUAUUACCUGGUA [C4G U9C], the self-cleavage worked out at 0.274. Then GUCGUCUUGCACGUGCGCGUGAAAGAGAGAAGUGAACCAGAGAAACACACGUUGUGGUAUAUUACCUGGUA [C4G U9G], with 0.164; and GUCGUCUUUCACGUGCGCGUGAAAGAGAGAAGUGAACCAGAGAAACACCCGUUGUGGUAUAUUACCUGGUA [C4G A49C], with 0.161.

For GUCAUCUUUCACGUGCGCGUGAAAGAGAGAAGUGAACCAGAGAAACACACGUUGUGGUAUAUUACCUGUUA [C4A G69U], the self-cleavage was found to be 0.169. With GUCAUCUUUCACGAGCGCGUGAAAGAGAGAAGUGAACCAGAGAAACACACGUUGUGGUAUAUUACCUGGUA [C4A U14A] the figure was 0.191; with GUCGUCUUUCACGUGCGCGUGAAAGAGAGAAGUGAACCAGAGAAACACACGUAGUGGUAUAUUACCUGGUA [C4G U53A], 0.15; with GUCGUCUUUCACGUGCGCGUGAAAGAGAGAAGAGAACCAGAGAAACACACGUUGUGGUAUAUUACCUGGUA [C4G U33A], 0.154. With GUCGUCUUUCACGUGCGCGUGAAAGAGAGAAGUGAAUCAGAGAAACACACGUUGUGGUAUAUUACCUGGUA [C4G C37U] the figure was 0.222; with GUCGUCUUUCACGUGCGAGUGAAAGAGAGAAGUGAACCAGAGAAACACACGUUGUGGUAUAUUACCUGGUA [C4G C18A], 0.194; with GUCGUCUUUCACGUGCGGGUGAAAGAGAGAAGUGAACCAGAGAAACACACGUUGUGGUAUAUUACCUGGUA [C4G C18G], 0.0835. With GUCGUCUUUCACGUGCGCGUGAAAGAGAGAAGUCAACCAGAGAAACACACGUUGUGGUAUAUUACCUGGUA [C4G G34C] the figure was 1.19. GUCGUCUUUCACUUGCGCGUGAAAGAGAGAAGUGAACCAGAGAAACACACGUUGUGGUAUAUUACCUGGUA [C4G G13U]: the self-cleavage amounted to 0.21. Then GUCAUCUUUCACGUGCGCGUGAAAGAGAGAAGUGAACCAGAGAAACACACGUUGUGGUAUAUGACCUGGUA [C4A U63G], with 0.269; and GUCAUCUUUCACGUGCGCGUGAAAGAGAGAAGUGAACCAGAGAAACACACGUUGUGGUAUAUCACCUGGUA [C4A U63C], with 0.115. With GUCAUCUUUCACGUGCGCGUGAAAGAGAGAAGUGAACCAGAGAAACACACGUUGUGGUAUAUAACCUGGUA [C4A U63A] the figure was 0.101. Then GUCGUCUUUCACGUGCGCGUGAAAGAGAGAAGUGAACCAGCGAAACACACGUUGUGGUAUAUUACCUGGUA [C4G A41C], with 0.236; and GUCGUCUUUCACGUGCGCGUGAAAGAGAGAAGUGAACCAGUGAAACACACGUUGUGGUAUAUUACCUGGUA [C4G A41U], with 0.558.

In the case of GUCGUCUUUCACGUGCACGUGAAAGAGAGAAGUGAACCAGAGAAACACACGUUGUGGUAUAUUACCUGGUA [C4G G17A], the self-cleavage is 0.159. With GUCGUCUUUCACGUGCGCGUGAAAGAGAGAAGUGCACCAGAGAAACACACGUUGUGGUAUAUUACCUGGUA [C4G A35C] the figure was 0.16; with GUCGUCUUUCACGUGCGCGUGAAAGAGAGAAGUGUACCAGAGAAACACACGUUGUGGUAUAUUACCUGGUA [C4G A35U], 0.157; with GUCGUCUUUCACGUGCGCGUGAAAGAGAGAAGUGAACCAGACAAACACACGUUGUGGUAUAUUACCUGGUA [C4G G42C], 0.17. With GUCAUCUUUCACGUGCGCGAGAAAGAGAGAAGUGAACCAGAGAAACACACGUUGUGGUAUAUUACCUGGUA [C4A U20A] the figure was 0.0852; with GUCGUCUUUCACGUGCGCGUGAAAGAGAGAAGUGAACCAGAGAAACCCACGUUGUGGUAUAUUACCUGGUA [C4G A47C], 0.13.

As for GUCGUCUUUCACGUGCGCGUGAAAGAGAGAAGUGAACCAGAGAAACUCACGUUGUGGUAUAUUACCUGGUA [C4G A47U], the self-cleavage amounted to 0.0972.

Take GUCGUCUGUCACGUGCGCGUGAAAGAGAGAAGUGAACCAGAGAAACACACGUUGUGGUAUAUUACCUGGUA [C4G U8G]: the self-cleavage was 0.0927. Turning to GUCAUCUUUCACGUGCGCGUGAAAGAGAGAAGUGAACCAGAGAAACACACGUUGUGGUAGAUUACCUGGUA [C4A U60G], the self-cleavage stood at 0.139. With GUCAUCUUUCACGUGCGCGUGAAAGAGAGAAGUGAACCAGAGAAACACACGUUGUGGUACAUUACCUGGUA [C4A U60C] the figure was 0.521; with GUCAUCUUUCACGUGCGCGUGAAAGAGAGAAGUGAACCAGAGAAACACACGUUGUGGUAUAUUACCUGGGA [C4A U70G], 0.154. As for GUCAUCUUUCACGUGCGCGUGAAAGAGAGAAGUGAACCAGAGAAACACACGUUGUGGCAUAUUACCUGGUA [C4A U58C], the self-cleavage came to 0.293. Then GUCAUCUUUCACGUGCGCGUGAAAGAGAGAAGUGAACCAGAGAAACACACGUUGUGGUAUAUUACCCGGUA [C4A U67C], with 0.0871; and GUCGUCUUUCACGUGCGCGUGAAAGAUAGAAGUGAACCAGAGAAACACACGUUGUGGUAUAUUACCUGGUA [C4G G27U], with 0.31; and GUCGUCUUUCACGUGCGCGUGAAAGAGAGAAGUGAACCAGAGAAACACACGUUGUGGUAUAUUACCUGGUU [C4G A71U], with 0.289.

With GUCGUCUUUCACGUGCGCGUGAAAGAGAGAAGUGAACCAGAGAAACACACGUUGUGGUAUAUUACCUGGUG [C4G A71G], the self-cleavage stood at 0.241.

Take GUCGUCUUUCACGUGCGCGUGAAAUAGAGAAGUGAACCAGAGAAACACACGUUGUGGUAUAUUACCUGGUA [C4G G25U]: the self-cleavage turned out to be 0.177. With GUCGUCUUUCACGUGCGCGGGAAAGAGAGAAGUGAACCAGAGAAACACACGUUGUGGUAUAUUACCUGGUA [C4G U20G] the figure was 0.22; with GUCGUCUUUCACGUGCGCGUGAAAGAGAGAAGUGAACCAGAGAAACAGACGUUGUGGUAUAUUACCUGGUA [C4G C48G], 0.0514.
